From paper doi:10.1101/2021.05.23.445342
Where “and” joins values, the source holds several entries; their conditions need not be identical. Equal values may be shown once.

Experiments:
[1] = target: Biotin-Cys-AKAP5c (human) (UniProt P24588); test: SPR
[2] = target: Biotin-Cys-AKAP5c_(ILVF->SA) (human) (UniProt P24588); test: SPR
[3] = target: Calcineurin (human PPP3CA / PPP3R1 heterodimer) (human) (UniProt Q08209); test: AUC

- Kd of a further surface site class [1]: 1000 to 10000 nM
- Kd of surface site class 1 (one or possibly two very similar sites) [1]: 10 to 100 nM
- Kd of the one main surface site class [2]: 100 nM and 1000 nM
- Kd [3]: 100000 nM
- percent heterotetramer [3]: 8%
Substance: Calcineurin (human PPP3CA / PPP3R1 heterodimer) (from UniProt Q08209 1-521; P63098 1-170) (complex)
